Drawing on US20040132033, this text covers Kd for 14 sequences.

What all share (experiment): EMSA
On the technique in general: A gel shift assay detects complexes by their altered migration in electrophoresis.

One data set has as its system SBS#1140 ZFP (synthetic). The following applies: 100 mM KCl, 1 mM MgCl2, 100 uM ZnCl2, pH 7.5, RT.
For another data set, the system named is SBS#1750 ZFP (synthetic). The following applies: 100 mM KCl, 1 mM MgCl2, 100 uM ZnCl2, pH 7.5, RT.
The subject of a further data set is SBS#1760 ZFP (synthetic). The conditions noted are these: 100 mM KCl, 1 mM MgCl2, 100 uM ZnCl2, pH 7.5, RT.
A further data set deals with SBS#1764 ZFP (synthetic). The following applies: 100 mM KCl, 1 mM MgCl2, 100 uM ZnCl2, pH 7.5, RT.
In another data set the test system is SBS#1755 ZFP (synthetic). The conditions noted are these: 100 mM KCl, 1 mM MgCl2, 100 uM ZnCl2, pH 7.5, RT.
A further data set deals with SBS#779 ZFP (synthetic). The following applies: 100 mM KCl, 1 mM MgCl2, 100 uM ZnCl2, pH 7.5, RT.
The test system of another data set is SBS#1756 ZFP (synthetic). The conditions noted are these: 100 mM KCl, 1 mM MgCl2, 100 uM ZnCl2, pH 7.5, RT.
Another data set relates to SBS#1770 ZFP (synthetic). The conditions noted are these: target also SEQ 111; 100 mM KCl, 1 mM MgCl2, 100 uM ZnCl2, pH 7.5, RT.
The next data set relates to SBS#781 ZFP (synthetic). The following applies: 100 mM KCl, 1 mM MgCl2, 100 uM ZnCl2, pH 7.5, RT.
The next data set deals with SBS#519 ZFP (synthetic). The following applies: listed twice (-343 and -329, same 9 bp, SEQ 21 and 23); 100 mM KCl, 1 mM MgCl2, 100 uM ZnCl2, pH 7.5, RT.
The next data set concerns SBS#386 ZFP (synthetic). The following applies: 100 mM KCl, 1 mM MgCl2, 100 uM ZnCl2, pH 7.5, RT.
A further data set has as its system SBS#705 ZFP (synthetic). The conditions noted are these: 100 mM KCl, 1 mM MgCl2, 100 uM ZnCl2, pH 7.5, RT.
A further data set has as its system SBS#713 ZFP (synthetic). The following applies: 100 mM KCl, 1 mM MgCl2, 100 uM ZnCl2, pH 7.5, RT.
In a further data set the test system is SBS#1757 ZFP (synthetic). The conditions noted are these: 100 mM KCl, 1 mM MgCl2, 100 uM ZnCl2, pH 7.5, RT.
The test system of the next data set is SBS#1772 ZFP (synthetic). The following applies: 100 mM KCl, 1 mM MgCl2, 100 uM ZnCl2, pH 7.5, RT.

As a reminder, the Kd is the free concentration of one partner at which half of the binding sites on the other are occupied at equilibrium, for simple one-to-one binding.

Sequence “AAGGGTGCG (double strand) [SBS#1140 target (-287)]” registered a dissociation constant Kd in the data set with SBS#1140 ZFP (synthetic) of 0.3 nM.

“ATGGAGGGC (double strand) [SBS#1750 target (-147)]” registered an equilibrium dissociation constant (Kd) with SBS#1750 ZFP (synthetic) of 0.011 nM.

In turn, “ATGGCCGGG (double strand) [SBS#1760 target (-299)]” returned a Kd in the data set with SBS#1760 ZFP (synthetic) of 0.42 nM.

The sequence “CAAGTGGGT (double strand) [SBS#1764 target (-286)]” displayed an equilibrium dissociation constant (Kd) with SBS#1764 ZFP (synthetic) of 0.11 nM.

In the case of “CGGGAGGCC (double strand) [SBS#1755 target (-319)]”, the dissociation constant Kd in the data set on SBS#1755 ZFP (synthetic) is 0.006 nM.

“CGGGGAGCA (double strand) [SBS#779 target (-356)]” had a Kd in the data set on SBS#779 ZFP (synthetic) of 0.5 nM.

Regarding “CGGGGAGGA (double strand) [SBS#1756/1770 target (-342)]”, the Kd was 0.125 nM in the data set with SBS#1756 ZFP (synthetic) and 0.01 nM with SBS#1770 ZFP (synthetic).

Sequence “GGGGAGCAG (double strand) [SBS#781 target (-357)]” had a Kd in the data set with SBS#781 ZFP (synthetic) of 4.25 nM.

As to “GGGGAGGAG (double strand) [SBS#519 target (-343 and -329)]”, the equilibrium dissociation constant (Kd) with SBS#519 ZFP (synthetic) is 1.12 nM.

“GGGGCGGAG (double strand) [SBS#386 target (-111)]” returned a Kd in the data set on SBS#386 ZFP (synthetic) of 0.4 nM.

In turn, “GGGGCGGGG (double strand) [SBS#705 target (-201)]” registered a dissociation constant (Kd) in the data set with SBS#705 ZFP (synthetic) of 0.01 nM.

“GGTGAGGAG (double strand) [SBS#713 target (-127)]” showed a Kd in the data set on SBS#713 ZFP (synthetic) of 0.15 nM.

In the data set on SBS#1757 ZFP (synthetic), “GGTGCGGAG (double strand) [SBS#1757 target (-290)]” gave an equilibrium dissociation constant (Kd) of 0.05 nM.

For the sequence “GTGGGTGAT (double strand) [SBS#1772 target (-277)]”, the Kd in the data set with SBS#1772 ZFP (synthetic) is 0.006 nM.
